Laboratory results: patent US20040132067, “Systematic evolution of ligands by exponential enrichment: photoselection of nucleic acid ligands and solution selex” (SOMALOGIC, INC., published 2004)

Columns and labels:
HIV-1 Rev [1] = target: T1, HIV-1 Rev (Human immunodeficiency virus 1, UniProt P04618 P04618:1-116); assay: photo-independent crosslinking seen at 50 nM Rev in 1:100 weight ratio with human nuclear extract
Method: Trunc24 (SEQ ID NO:59) photo-independent crosslinking with HIV-1 Rev in the presence of human nuclear extracts was determined as follows: Trunc24 RNA, nuclear extracts, and Rev protein were combined and incubated on ice for 10 min. Samples were mixed 1:1 with 8 M urea loading buffer and placed on a 7 M urea, 8% polyacrylamide gel for analysis, XL indicates the nucleoprotein complex, RNA indicates free trunc24 RNA.

HIV-1 Rev [2] = target: T1, HIV-1 Rev; assay: photocrosslinking 325 nm, 4 min, 500 nM protein, 20 ug tRNA, 37 C
Text: The sequences are aligned for maximum homology to the 6a sequence (SEQ ID NO:5). Underlines represent potential base pairing as indicted by computer RNA folding algorithms. Dashed underlines represent the 6a ligand “bubble” motif. Sequences flanked by underline represent either loop or bulge regions. Dashes are placed to maximize alignment with 6a. * denotes that two isolates were obtained. +indicates laser independent crosslinking and—denotes the lack of laser independent crosslinking to HIV-1 Rev. […] FIGS. 18 and 19 show the sequence of Trunc2 (SEQ ID NO:58) and Trunc24 (SEQ-ID NO:59) and the specificity results. 500 nM protein, 20 μg tRNA, and approximately 1 nM of kinased trunc2 RNA were incubated for 10 min. at 37° C. and irradiated for 4 min at 325 nm. t2-trunc2 RNA irradiated without added protein; t2Rev1/O′-trunc2 RNA, HIV-1 Rev protein and 0 min. of irradiation; t2/Rev1/4′-trunc2 RNA, HIV-1 Rev protein, adn 4 min. of irradiation; t2/Rev1/4′/PK-trunc2 RNA, HIV-1 Rev protein, 4 min. or irradiation, and proteinase K treated as in FIG. 1; t2/Rev2/4′-trunc2 RNA, HIV-2 Rev protein, and 4 min. of irradiation; t2/Tat/4′-trunc2 RNA, HIV-1 Tat protein, and 4 min. of irradiation. R-free RNA; XL-crosslinked nucleoprotein complex.

T1 sequence (P04618 whole entry, one chain of several): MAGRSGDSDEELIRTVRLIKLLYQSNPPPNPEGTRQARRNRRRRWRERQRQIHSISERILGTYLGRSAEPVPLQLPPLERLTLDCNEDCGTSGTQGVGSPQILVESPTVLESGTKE

Binder: GGGGAUUAACAGGCACACCUGUUAACCCU (ssRNA) [trunc24]
- binding result (HIV-1 Rev [1]): binds

Binder: GGGUGUAUGAAACACCACGUGUGUUUCCACUC (ssRNA, 5-iodouracil at all U) [trunc2]
- binding result (HIV-1 Rev [2]): binds
